Measurements published in the supplement of paper PMC12042874.
± gives the uncertainty stated by the source.

assay: amyloid nucleation score (Sup35N fusion, yeast selection) (log enrichment); library NNK1; higher = more nucleation; inactive = no reads after selection
Summary of the method: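 For the nucleation score, DiMSum gave the log enrichment of output over input reads, centred on the mode score of non-aggregating sequences. Psi-negative yeast expressing Sup35N fused to peptides of 20 random codons were induced with 100 μM copper sulfate for 24 hours and grown 7 days at 30°C on medium lacking adenine and uracil. Input and output plasmid inserts were Illumina-sequenced, and sequences with under 100 input reads were excluded.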

| Substance | amyloid nucleation score |
| --- | --- |
| AFDGVS | -0.096 ± 1.7 |
| DLAHYAW | 0.286 ± 0.45 |
| LMTPEKVNEGATDRLRLFRN | -0.323 ± 0.68 |
| TWRQNSRGNRASNCYVRSLS | inactive |
| SGWIKIFG | -0.293 ± 0.66 |
| YYNVCHNRINLVTSWFFYRR | 0.946 ± 0.78 |
| RNCNWDYEVNIKWRVRVEFL | inactive |
| SSMLSISVFEWITFRWR | 0.181 ± 0.58 |
| VVLGLWV | inactive |
| RFYIMYLSGCAKTSFCGFVS | 6.4 ± 0.079 |
| KCTLYLQFNIEHGCAIFEDK | 2.06 ± 0.64 |
| KDEARRGLTLCPTGKDILDY | -0.026 ± 0.47 |
| LYHRGVFELCS | 0.596 ± 0.34 |
| SRSIRSYDPWMVCMSMWLSD | 1.13 ± 0.9 |
| LKCFRLS | 0.327 ± 0.55 |
| VVLDAFIPWYSLLATSSVGA | -0.777 ± 2.4 |
| IQTCCHIQVELV | 3.79 ± 0.088 |
| NCFSMRQRECCRYRMCVNGI | 1.01 ± 0.55 |
| EICSSESAVQKHNSPWGSDY | -1.71 ± 2.7 |
| MNVVILEAYGRSPIGMQAFF | 2.59 ± 0.18 |
| SMDLHMYSKFMRYSVFVCNL | 1.14 ± 0.79 |
| HYAVGRARNLGCLDLSQ | 0.064 ± 0.48 |

| Substance | amyloid nucleation score |
| --- | --- |
| SKDKGSTLGTSNLGRDGSWK | 0.5 ± 0.45 |
| GATIIKSFLDRNSTTWLSLV | -0.451 ± 0.63 |
| APRCKSIWS | -0.706 ± 0.59 |
| RSYSTCFPLIVLSK | 0.303 ± 0.28 |
| KRMDKPWTPGYTAMHWVDNM | 0.612 ± 0.52 |
| VWVHD | 0.257 ± 0.26 |
| SVNTPTGSIFEICQYDSIKG | -0.302 ± 0.45 |
| KRCSFWQTRTVELSFGHPVL | -1.23 ± 2.7 |
| VGRLGVEG | -0.305 ± 0.25 |
| HCRNS | 2 ± 0.3 |
| SGPRRQIDAIMFRGL | -0.086 ± 1.2 |
| LVITIDARRVAVTLIYMKMR | 2.37 ± 0.15 |
| GREMYRLLHLNVEYTHGTRY | 3.79 ± 0.075 |
| ECPRVSLASGDVE | 1.17 ± 0.66 |
| VWISWMSRISITRLCVWGSV | 0.379 ± 0.41 |
| TCRLKLVFLNVTVKSKFCVL | -0.362 ± 0.76 |
| NLCRIRIARLQHGGRSTMSF | 1 ± 0.73 |
| LFNYPS | -0.948 ± 1.1 |
| WFMVVSRNMFCV | 0.456 ± 1.1 |
| LRWMESLRLNARSFKDTLLC | -0.33 ± 1.7 |
| RAKLFHWLNWR | 0.282 ± 0.67 |
| LPGDFYGSYRN | inactive |

| Substance | amyloid nucleation score |
| --- | --- |
| FCHYTVLYDSPTLLVRVTWA | -0.681 ± 0.85 |
| YQSHLAIFFRDGHRSSKITN | -0.008 ± 1.2 |
| FAYFSVNCL | inactive |
| IQSLVFRGKRVTHTKQSLTL | 0.262 ± 0.36 |
| VCCGPSSEEP | 0.384 ± 0.85 |
| DSEDVVLQCEWWTRLARIEY | -0.333 ± 0.54 |
| VILLILNYYSHWDVLLK | -0.111 ± 0.4 |
| WISKWHYGAQSSARSKYARI | 0.864 ± 0.47 |
| RSEVEFNTPHLLKCVPDMSF | 0.587 ± 0.42 |
| LNNHETFFGFVDVSGSAIS | 0.272 ± 0.26 |
| GIGVKSEGHVINDFYKLRER | 0.002 ± 0.45 |
| DVAARVQKNCPVIIGAIRSK | 0.091 ± 1.6 |
| IYFKIVILLRSSFFL | inactive |
| DRWWILNGTTDLSLGWVLEC | 0.648 ± 0.97 |
| WFNWVCCNGNAWIKDRF | 7.66 ± 0.054 |
| VILWRSRIASRCPTLM | -0.415 ± 1.4 |
| ILFRVVSRVGISRYGWKRVL | -0.241 ± 0.83 |
| AMWYTRRMQVENVKTVLSLM | -0.027 ± 0.34 |
| KQLDINRLTSDMS | inactive |
| RCDNAQLHIFVHLFRSVSDM | inactive |
| MNTSVAWMVR | -0.149 ± 0.32 |
| KHAYFSLIRVSNWKWNSVRV | -0.027 ± 0.56 |

| Substance | amyloid nucleation score |
| --- | --- |
| IAYNDSYMVKYCVREVLMDE | 4.29 ± 0.13 |
| NSFRAAHWSEMVPAELGRSV | -0.513 ± 0.41 |
| IGQLHFIEITNMREGHPFLA | 0.53 ± 0.63 |
| ADSFSI | -0.118 ± 0.44 |
| SSLASMASVDRKNHRGSGEG | 1.77 ± 0.11 |
| RMERGKNLQMWEGQEVGAEN | -1.19 ± 0.77 |
| HILSSVLHSGVCMWTVITPY | 0.72 ± 0.71 |
| STYPLEEYKGSGCLAG | -0.522 ± 0.39 |
| TGWEVV | -1.16 ± 0.75 |
| AVLLCRSESCCKYSAIANSG | -1.22 ± 0.69 |
| VNEFLRFFLWSHLQWMI | -0.045 ± 0.28 |
| MFRWHVLGKKITP | -0.067 ± 0.37 |
| YYFIFII | 4.79 ± 0.074 |
| KCYGVETTYALA | 0.875 ± 0.97 |
| VLIGSLLCN | 0.878 ± 0.41 |
| MWCLGLDIFRIRVYRCAGGG | -0.348 ± 0.28 |
| DFHDLSNLVTGGLLITHIL | 1.01 ± 0.58 |
| YARVGKRNGSRNPYFINWGR | -0.733 ± 1.3 |
| ILMLKH | -0.484 ± 0.68 |
| TEITC | 0.837 ± 0.27 |
